The target of test [1] is SIRPg on human CD3+ T cells (human) (UniProt Q9P1W8). As to the kind of experiment: flow cytometry on peripheral human CD3+ T cells; Exp 1 HV1 [B, table B].
For test [2] the target is unchanged. The test is described as follows: flow cytometry on peripheral human CD3+ T cells; Exp 1 HV2 [B, table B]. For orientation: A flow cytometer gives signals particle by particle.
Test [3] concerns the target SIRPa on human monocytes (human) (UniProt P78324). As to the kind of experiment: flow cytometry on human monocytes v1/v1, PE anti-human Fc; MFI [B, panel B table].
Test [4] has the same target. As to the kind of experiment: flow cytometry on human monocytes v1/v1, PE anti-human Fc; percent of stained monocytes [B, panel A table].
In test [5] the target is recombinant hSIRPa (Sino Biologicals, reference 11612-H08H) (human) (UniProt P78324). The test is described as follows: SPR (Biacore); SIRPa-His immobilized on CM5 chip, antibody injected. (SPR reads the build-up and loss of mass on a sensor chip optically.)
Test [6] addresses recombinant hSIRPa (Sino Biologicals, reference 10975-H08H) (human) (UniProt P78324). The test is described as follows: ELISA on immobilized recombinant hSIRPa, anti-mouse Fc detection; given as ED50.
Test [7] deals with CD47 on human T cells, red blood cells and platelets (human) (UniProt Q08722). As to the kind of experiment: flow cytometry on peripheral human CD3+ T cells; Exp 1 HV1 [B, table B].
Test [8] shares this target. The test is described as follows: flow cytometry on peripheral human CD3+ T cells; Exp 1 HV2 [B, table B].

For orientation: EC50 means the concentration at which the effect is half-maximal. By pKd is commonly meant the Kd on a negative log10 scale, so that one unit is a factor of ten. As a reminder, the koff is a measure of how fast the partners let go of each other. For orientation: kon means a measure of how fast the partners come together.

pKd: −log10 of the molar value. Several values for one entry are separate records, joined by “and”; a condition that tells them apart may be missing. Identical values can stand only once.

Sequence of SIRPg on human CD3+ T cells (human) (Q9P1W8 29-387): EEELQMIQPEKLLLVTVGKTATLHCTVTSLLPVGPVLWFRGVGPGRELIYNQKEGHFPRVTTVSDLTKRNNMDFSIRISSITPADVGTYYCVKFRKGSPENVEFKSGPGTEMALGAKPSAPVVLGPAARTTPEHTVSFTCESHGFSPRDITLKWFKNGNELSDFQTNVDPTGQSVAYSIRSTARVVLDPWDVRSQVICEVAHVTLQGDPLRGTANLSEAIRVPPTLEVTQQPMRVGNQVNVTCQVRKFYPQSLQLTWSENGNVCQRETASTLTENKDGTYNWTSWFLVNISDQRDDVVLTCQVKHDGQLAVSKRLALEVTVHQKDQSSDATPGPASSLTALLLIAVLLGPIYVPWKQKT

Ctrl Ab II (antibody): the % of positive T-cells came to 0.45% in test [1] and 1.12% in test [2].

As for Kwar23 (antibody), the EC50 in test [3] was found to be 0.378 mg/L; in test [4], 0.26 mg/L.

On to LSB2.20 (antibody), for which the % of positive T-cells stood at 91.4% in test [1] and 98.4% in test [2].

Mouse isotype Ctrl (antibody) displayed a % of positive T-cells in test [2] of 0.016%.

As to SE5A5 (antibody), in test [5], the negative logarithm of the Kd (pKd) was 7.41, the koff was found to be 0.000949 s⁻¹ and the kon was determined as 24500 M⁻¹ s⁻¹. Moreover, the % of positive T-cells in test [1] came to 3.72%. Besides, in test [2], the % of positive T-cells was 7.69%. Further, in test [6], the EC50 was 0.16 nM and 0.024 µg/mL.

For the substance SE7C2 (antibody), in test [5], the pKd was 5.78, the koff came to 0.01 s⁻¹ and the on-rate constant (kon) was determined as 5980 M⁻¹ s⁻¹.

For SIRPa-fc (Fc fusion), the % of positive T-cells in test [7] worked out at 72.2%; in test [8], 80.1%.

Source of the values: US20210179728A1.
